Laboratory results published in PMC3426363 (Pharmaceutical research, 2011).
Read-outs that look alike come from different tables or passages of the source. Each block holds one molecule with its values, some of them ahead of it.

What was measured:
UGT1A1 [1] = molecular target: T1, UGT1A1 (Homo sapiens, UniProt P22309); test: UGT1A1 glucuronidation kinetics of flavonols; type: in vitro ADME; settings: for Ks: substrate inhibition constant
T1 sequence (P22309 26-533): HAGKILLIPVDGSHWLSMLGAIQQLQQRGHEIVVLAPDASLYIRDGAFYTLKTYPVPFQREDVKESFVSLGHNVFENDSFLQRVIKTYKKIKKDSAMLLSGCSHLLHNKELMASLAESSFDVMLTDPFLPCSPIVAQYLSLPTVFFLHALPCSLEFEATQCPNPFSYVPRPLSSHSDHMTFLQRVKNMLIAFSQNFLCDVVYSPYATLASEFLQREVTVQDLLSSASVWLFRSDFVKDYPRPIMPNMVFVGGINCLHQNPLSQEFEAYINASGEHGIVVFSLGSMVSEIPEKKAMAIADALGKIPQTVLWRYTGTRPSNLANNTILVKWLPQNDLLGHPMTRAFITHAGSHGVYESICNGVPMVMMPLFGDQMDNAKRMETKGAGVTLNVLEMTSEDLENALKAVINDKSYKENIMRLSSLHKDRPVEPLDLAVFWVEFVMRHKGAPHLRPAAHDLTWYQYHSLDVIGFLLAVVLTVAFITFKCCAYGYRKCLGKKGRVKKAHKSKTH

UGT1A3 = molecular target: T2, UGT1A3 (Homo sapiens, UniProt P35503); test: UGT1A3 glucuronidation kinetics of flavonols; type: in vitro ADME; settings: substrate inhibition constant
T2 sequence (P35503 29-534): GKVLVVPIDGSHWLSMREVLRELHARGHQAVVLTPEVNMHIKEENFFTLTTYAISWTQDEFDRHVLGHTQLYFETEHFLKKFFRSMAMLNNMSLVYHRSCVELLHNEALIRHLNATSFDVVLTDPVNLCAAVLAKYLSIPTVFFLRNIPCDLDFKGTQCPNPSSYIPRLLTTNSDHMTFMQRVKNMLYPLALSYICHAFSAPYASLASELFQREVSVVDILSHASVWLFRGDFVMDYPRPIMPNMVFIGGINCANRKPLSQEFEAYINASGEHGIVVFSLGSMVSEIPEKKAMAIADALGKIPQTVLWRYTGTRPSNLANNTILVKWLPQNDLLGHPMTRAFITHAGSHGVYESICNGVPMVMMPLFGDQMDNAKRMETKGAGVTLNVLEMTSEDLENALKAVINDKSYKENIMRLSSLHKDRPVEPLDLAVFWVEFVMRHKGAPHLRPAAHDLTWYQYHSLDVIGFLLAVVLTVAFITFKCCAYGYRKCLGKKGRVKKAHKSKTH

UGT1A7 = molecular target: T3, UGT1A7 (Homo sapiens, UniProt Q9HAW7); test: UGT1A7 glucuronidation kinetics of flavonols; type: in vitro ADME; settings: formation of 3-O-glucuronide, substrate inhibition constant
T3 sequence (Q9HAW7 26-530): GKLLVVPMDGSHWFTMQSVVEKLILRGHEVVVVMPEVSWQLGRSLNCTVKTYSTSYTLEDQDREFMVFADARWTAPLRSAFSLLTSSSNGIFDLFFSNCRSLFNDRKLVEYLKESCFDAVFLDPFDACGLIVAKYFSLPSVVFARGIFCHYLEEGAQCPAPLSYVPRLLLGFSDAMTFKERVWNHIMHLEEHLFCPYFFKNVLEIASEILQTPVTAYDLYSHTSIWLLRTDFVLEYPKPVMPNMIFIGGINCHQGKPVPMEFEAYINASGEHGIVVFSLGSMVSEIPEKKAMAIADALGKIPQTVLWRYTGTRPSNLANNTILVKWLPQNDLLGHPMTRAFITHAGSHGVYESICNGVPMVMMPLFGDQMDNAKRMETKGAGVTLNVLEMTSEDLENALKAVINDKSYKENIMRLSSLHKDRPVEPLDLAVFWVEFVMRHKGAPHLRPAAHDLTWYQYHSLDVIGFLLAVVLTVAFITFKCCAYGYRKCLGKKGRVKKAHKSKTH

UGT1A9 = molecular target: T4, UGT1A9 (Homo sapiens, UniProt O60656); test: UGT1A9 glucuronidation kinetics of flavonols; type: in vitro ADME
T4 sequence (O60656 26-530): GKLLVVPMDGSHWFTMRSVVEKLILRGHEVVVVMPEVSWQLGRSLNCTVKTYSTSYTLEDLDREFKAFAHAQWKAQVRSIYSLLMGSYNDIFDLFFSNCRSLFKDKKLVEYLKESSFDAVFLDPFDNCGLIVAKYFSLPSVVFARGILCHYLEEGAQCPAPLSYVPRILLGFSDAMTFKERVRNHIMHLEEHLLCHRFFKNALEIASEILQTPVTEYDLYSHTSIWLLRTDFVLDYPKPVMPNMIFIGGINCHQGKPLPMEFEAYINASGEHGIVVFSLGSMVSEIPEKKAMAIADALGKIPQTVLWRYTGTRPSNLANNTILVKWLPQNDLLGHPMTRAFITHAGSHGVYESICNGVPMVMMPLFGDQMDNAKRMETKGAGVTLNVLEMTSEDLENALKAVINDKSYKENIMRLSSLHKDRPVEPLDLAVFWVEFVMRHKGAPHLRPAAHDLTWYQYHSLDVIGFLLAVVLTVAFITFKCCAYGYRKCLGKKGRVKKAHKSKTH

UGT1A10 = molecular target: T5, UGT1A10 (Homo sapiens, UniProt Q9HAW8); test: UGT1A10 glucuronidation kinetics of flavonols; type: in vitro ADME; settings: substrate inhibition constant
T5 sequence (Q9HAW8 26-530): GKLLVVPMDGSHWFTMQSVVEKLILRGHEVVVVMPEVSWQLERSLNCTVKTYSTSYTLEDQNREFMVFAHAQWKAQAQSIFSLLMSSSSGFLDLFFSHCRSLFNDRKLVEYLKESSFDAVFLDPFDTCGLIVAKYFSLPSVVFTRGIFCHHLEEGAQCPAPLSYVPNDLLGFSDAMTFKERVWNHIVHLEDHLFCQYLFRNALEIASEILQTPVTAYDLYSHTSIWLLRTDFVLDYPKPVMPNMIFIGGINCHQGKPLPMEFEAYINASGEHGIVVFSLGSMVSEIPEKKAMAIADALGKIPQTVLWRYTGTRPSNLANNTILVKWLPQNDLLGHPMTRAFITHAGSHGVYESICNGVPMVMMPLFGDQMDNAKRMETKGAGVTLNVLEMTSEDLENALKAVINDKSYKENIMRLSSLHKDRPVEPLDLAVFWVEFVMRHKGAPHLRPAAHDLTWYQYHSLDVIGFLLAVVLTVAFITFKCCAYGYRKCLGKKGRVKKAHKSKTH

UGT1A1 [2] = molecular target: T1, UGT1A1; settings: cited from earlier work
[3] = substrate: O=c1c(O)c(-c2ccc(O)cc2)oc2cc(O)cc(O)c12; test: UGT1A3 glucuronidation kinetics of flavonols; type: in vitro ADME, human; settings: other: UGT1A3; formation of 7-O-glucuronide; pH 6.5
[4] = substrate: O=c1c(O)c(-c2ccccc2)oc2cc(O)cc(O)c12; test: UGT1A3 glucuronidation kinetics of flavonols; type: in vitro ADME, human; settings: other: UGT1A3, pH 6.5
[5] = substrate: O=c1c(O)c(-c2ccccc2)oc2cc(O)ccc12; test: UGT1A3 glucuronidation kinetics of flavonols; type: in vitro ADME, human; settings: other: UGT1A3, pH 6.5
[6] = substrate: O=c1c(O)c(-c2ccc(O)cc2)oc2cc(O)cc(O)c12; test: UGT1A1 glucuronidation kinetics of flavonols; type: in vitro ADME, human; settings: other: UGT1A1; formation of 7-O-glucuronide; pH 6.5
[7] = substrate: O=c1c(O)c(-c2ccc(O)cc2)oc2cc(O)ccc12; test: UGT1A1 glucuronidation kinetics of flavonols; type: in vitro ADME, human; settings: other: UGT1A1, pH 6.5
[8] = substrate: O=c1c(O)c(-c2ccccc2)oc2cc(O)cc(O)c12; test: UGT1A1 glucuronidation kinetics of flavonols; type: in vitro ADME, human; settings: other: UGT1A1, pH 6.5
[9] = substrate: O=c1c(O)c(-c2ccccc2)oc2cc(O)ccc12; test: UGT1A1 glucuronidation kinetics of flavonols; type: in vitro ADME, human; settings: other: UGT1A1, pH 6.5

- Ks/Km ratio (UGT1A1 [1]; 3-O-glucuronidation): 0.38
- Ks/Km ratio (UGT1A1 [1]; 7-O-glucuronidation): 1.16
- Vmax (UGT1A1 [1]; formation of 3-O-glucuronide): 1.02 nmol/mg/min
- Ks (UGT1A1 [1]; formation of 3-O-glucuronide): 0.60 ± 0.38 µM
- Vmax (UGT1A1 [1]; formation of 7-O-glucuronide): 3.04 nmol/mg/min
- Ks (UGT1A1 [1]; formation of 7-O-glucuronide): 1.21 ± 0.23 µM
- Ks (UGT1A3; formation of 3-O-glucuronide): 100.05 ± 94.80 µM
- Ks (UGT1A3; formation of 7-O-glucuronide): 50.00 ± 80.17 µM
- Ks (UGT1A7): 309.17 ± 127.39 µM
- Ks (UGT1A9; formation of 3-O-glucuronide, substrate inhibition constant): 30.13 ± 7.11 µM
- Vmax (UGT1A9; formation of 7-O-glucuronide): 2.04 nmol/mg/min
Molecule: O=c1c(O)c(-c2ccccc2)oc2cc(O)ccc12 [3,7DHF, 3,7-dihydroxyflavone]

- Ks (UGT1A1 [1]; formation of 7-O-glucuronide): 2.81 ± 0.67 µM
- Ks (UGT1A3; formation of 7-O-glucuronide): 7.52 ± 9.58 µM
- Ks (UGT1A10; formation of 3-O-glucuronide): 30.01 ± 8.00 µM
- Ks (UGT1A10; formation of 7-O-glucuronide): 51.37 ± 27.15 µM
Molecule: O=c1c(O)c(-c2ccc(O)cc2)oc2cc(O)cc(O)c12 [3,5,7,4’QHF, 3,5,7,4’-tetrahydroxyflavone]

Molecule: C#C[C@]1(O)CC[C@H]2[C@@H]3CCc4cc(O)ccc4[C@H]3CC[C@@]21C [ethinylestradiol]
- Km (UGT1A1 [2]; reported value): 49.8 µM
- Ks/Km ratio (UGT1A1 [2]; substrate inhibition at high concentrations of UDPGA): 1.61

B1: UGT1A3 (Homo sapiens) (protein)
chain: T2 sequence (P35503 29-534)
- Km [3]: 3.30 ± 3.10 µM
- Vmax [3]: 0.86 ± 0.35 nmol/mg/min
- Vmax/Km [3]: 260 µL/min/mg
- Km ([4]; formation of 3-O-glucuronide): 0.84 ± 0.18 µM
- Vmax ([4]; formation of 3-O-glucuronide): 0.17 ± 0.01 nmol/mg/min
- Vmax/Km ([4]; formation of 3-O-glucuronide): 200 µL/min/mg
- Km ([4]; formation of 7-O-glucuronide): 2.12 ± 1.24 µM
- Vmax ([4]; formation of 7-O-glucuronide): 3.44 ± 0.84 nmol/mg/min
- Vmax/Km ([4]; formation of 7-O-glucuronide): 1620 µL/min/mg
- Km ([5]; formation of 3-O-glucuronide): 8.81 ± 2.72 µM
- Vmax ([5]; formation of 3-O-glucuronide): 0.18 ± 0.02 nmol/mg/min
- Vmax/Km ([5]; formation of 3-O-glucuronide): 20 µL/min/mg
- Km ([5]; formation of 7-O-glucuronide): 7.02 ± 3.76 µM
- Vmax ([5]; formation of 7-O-glucuronide): 1.89 ± 0.36 nmol/mg/min
- Vmax/Km ([5]; formation of 7-O-glucuronide): 270 µL/min/mg

B2: UGT1A1 (Homo sapiens) (protein)
chain: T1 sequence (P22309 26-533)
- Km [6]: 0.13 ± 0.03 µM
- Vmax [6]: 1.38 ± 0.14 nmol/mg/min
- Vmax/Km [6]: 10620 µL/min/mg
- Km ([7]; formation of 3-O-glucuronide): 0.30 ± 0.05 µM
- Vmax ([7]; formation of 3-O-glucuronide): 0.68 ± 0.05 nmol/mg/min
- Vmax/Km ([7]; formation of 3-O-glucuronide): 2270 µL/min/mg
- Km ([7]; formation of 7-O-glucuronide): 0.43 ± 0.10 µM
- Vmax ([7]; formation of 7-O-glucuronide): 1.08 ± 0.13 nmol/mg/min
- Vmax/Km ([7]; formation of 7-O-glucuronide): 2520 µL/min/mg
- Km ([8]; formation of 3-O-glucuronide): 0.31 ± 0.10 µM
- Vmax ([8]; formation of 3-O-glucuronide): 0.82 ± 0.14 nmol/mg/min
- Vmax/Km ([8]; formation of 3-O-glucuronide): 2650 µL/min/mg
- Km ([8]; formation of 7-O-glucuronide): 0.51 ± 0.08 µM
- Vmax ([8]; formation of 7-O-glucuronide): 4.59 ± 0.46 nmol/mg/min
- Vmax/Km ([8]; formation of 7-O-glucuronide): 9000 µL/min/mg
- Km ([9]; formation of 3-O-glucuronide): 1.57 ± 1.09 µM
- Vmax ([9]; formation of 3-O-glucuronide): 1.02 ± 0.54 nmol/mg/min
- Vmax/Km ([9]; formation of 3-O-glucuronide): 650 µL/min/mg
- Km ([9]; formation of 7-O-glucuronide): 1.04 ± 0.19 µM
- Vmax ([9]; formation of 7-O-glucuronide): 3.04 ± 0.42 nmol/mg/min
- Vmax/Km ([9]; formation of 7-O-glucuronide): 2920 µL/min/mg
